# T1: FcγRIIb extracellular domain with C-terminal His tag (human, UniProt P31994 43-217)
# T1 construct: extracellular domain; also called FcgRIIb; not shown: His tag at the C terminus
# T1 sequence (looked up): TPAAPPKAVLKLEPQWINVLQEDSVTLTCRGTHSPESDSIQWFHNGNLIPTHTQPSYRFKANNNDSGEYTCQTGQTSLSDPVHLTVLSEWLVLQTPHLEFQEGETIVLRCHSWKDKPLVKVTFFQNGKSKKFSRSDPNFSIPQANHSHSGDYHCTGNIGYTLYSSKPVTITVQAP
# T2: FcγRIIa R type extracellular domain with C-terminal His tag (human, UniProt P12318 34-217)
# T2 construct: extracellular domain; also called FcgRIIaR; not shown: His tag at the C terminus
# T2 sequence (looked up): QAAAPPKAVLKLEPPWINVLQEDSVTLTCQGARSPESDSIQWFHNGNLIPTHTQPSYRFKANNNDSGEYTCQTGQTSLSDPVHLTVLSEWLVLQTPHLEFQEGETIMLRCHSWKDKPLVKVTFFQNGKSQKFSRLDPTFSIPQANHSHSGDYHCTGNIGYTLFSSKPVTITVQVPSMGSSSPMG
# T3: human FcγRIIb extracellular domain with C-terminal His tag (human, UniProt P31994 43-217)
# T3 construct: extracellular domain; also called FcgRIIb
# T3 sequence (looked up): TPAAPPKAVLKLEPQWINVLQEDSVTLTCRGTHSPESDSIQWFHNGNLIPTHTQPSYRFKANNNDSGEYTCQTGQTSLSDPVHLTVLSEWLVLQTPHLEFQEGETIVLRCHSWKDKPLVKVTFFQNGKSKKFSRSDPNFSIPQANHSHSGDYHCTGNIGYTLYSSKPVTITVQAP
# T4: human FcγRIIa R type extracellular domain with C-terminal His tag (human, UniProt P12318 34-217)
# T4 construct: extracellular domain; also called FcgRIIaR
# T4 sequence (looked up): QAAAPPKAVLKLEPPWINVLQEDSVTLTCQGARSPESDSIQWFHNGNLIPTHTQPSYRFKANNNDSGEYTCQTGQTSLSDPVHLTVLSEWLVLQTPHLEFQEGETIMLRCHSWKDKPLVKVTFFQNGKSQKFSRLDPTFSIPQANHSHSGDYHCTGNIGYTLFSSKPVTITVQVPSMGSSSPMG
# T5: human FcγRIIa H type extracellular domain with C-terminal His tag (human, UniProt P12318 34-217)
# T5 construct: extracellular domain; also called FcgRIIaH
# T5 sequence (looked up): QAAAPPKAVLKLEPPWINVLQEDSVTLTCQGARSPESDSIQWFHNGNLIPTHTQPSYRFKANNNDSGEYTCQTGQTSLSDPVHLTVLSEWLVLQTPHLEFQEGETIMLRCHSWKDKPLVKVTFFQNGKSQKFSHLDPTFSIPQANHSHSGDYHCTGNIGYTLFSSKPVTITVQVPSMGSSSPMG
# T6: mouse FcγRIV (mouse, UniProt A0A0B4J1G0 21-203)
# T6 construct: also called mFcγRIV; mFc γ RIV
# T6 sequence: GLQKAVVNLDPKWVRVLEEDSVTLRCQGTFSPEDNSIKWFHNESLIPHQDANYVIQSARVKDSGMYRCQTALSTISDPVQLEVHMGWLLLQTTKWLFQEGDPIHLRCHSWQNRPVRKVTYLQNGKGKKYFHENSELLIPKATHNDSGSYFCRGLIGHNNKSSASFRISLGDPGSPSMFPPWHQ
# T7: mouse FcγRI (mouse, UniProt P26151 25-297, limits assumed)
# T7 construct: also called mFcγRI; mFc γ RI
# T7 sequence (looked up): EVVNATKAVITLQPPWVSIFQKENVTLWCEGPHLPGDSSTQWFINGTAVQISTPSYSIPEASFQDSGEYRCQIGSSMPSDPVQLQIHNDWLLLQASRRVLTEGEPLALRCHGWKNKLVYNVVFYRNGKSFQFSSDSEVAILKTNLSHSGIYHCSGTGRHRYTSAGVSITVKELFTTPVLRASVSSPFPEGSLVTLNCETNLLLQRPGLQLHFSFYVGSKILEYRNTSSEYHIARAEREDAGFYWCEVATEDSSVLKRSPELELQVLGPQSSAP
# How the values were obtained:
# [1] = biological target: T1, FcγRIIb extracellular domain with …; test: SPR; ratio of KD values, reference IL6R-G1d/IL6R-L
# [2] = biological target: T2, FcγRIIa R type extracellular domain …; test: SPR; ratio of KD values, reference IL6R-G1d/IL6R-L
# [3] = biological target: T3, human FcγRIIb extracellular domain with …; test: SPR, KD of IL6R-G1d/IL6R-L divided by KD of variant
# [4] = biological target: T4, human FcγRIIa R type extracellular …; test: as above
# [5] = biological target: T5, human FcγRIIa H type extracellular …; test: as above
# [6] = biological target: T8, human FcγRIa extracellular domain with C-terminal His tag (human, UniProt P12314 16-292); test: as above
# T8 construct: Whole entry named; also called FcgRIa
# [7] = biological target: T9, human FcγRIIIa V type extracellular domain with C-terminal His tag (human, UniProt P08637 17-208); test: as above
# T9 construct: extracellular domain; also called FcgRIIIaV
# [8] = biological target: T3, human FcγRIIb extracellular domain with …; test: SPR, antibody captured, FcgR analyte
# [9] = biological target: T4, human FcγRIIa R type extracellular …; test: SPR, antibody captured, FcgR analyte
# [10] = biological target: T5, human FcγRIIa H type extracellular …; test: SPR, antibody captured, FcgR analyte
# [11] = biological target: T8, human FcγRIa extracellular domain with …; test: SPR, antibody captured, FcgR analyte
# [12] = biological target: T9, human FcγRIIIa V type extracellular …; test: SPR, antibody captured, FcgR analyte
# [13] = biological target: T6, mouse FcγRIV; test: SPR (Biacore), method of Reference Example 2
# Procedure: (§1) The binding activities of these antibodies to the mouse FcγRs were evaluated by the method of Reference Example 2.
# [14] = biological target: T7, mouse FcγRI; test: SPR (Biacore), method of Reference Example 2
# Procedure: as §1
# T9 sequence (P08637 17-208 F176V): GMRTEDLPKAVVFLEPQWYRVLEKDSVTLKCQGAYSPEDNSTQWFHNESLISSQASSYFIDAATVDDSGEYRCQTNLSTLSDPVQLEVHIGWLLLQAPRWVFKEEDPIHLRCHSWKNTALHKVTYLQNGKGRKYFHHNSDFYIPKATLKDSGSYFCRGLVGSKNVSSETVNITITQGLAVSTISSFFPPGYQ
# T8 sequence (P12314 16-292): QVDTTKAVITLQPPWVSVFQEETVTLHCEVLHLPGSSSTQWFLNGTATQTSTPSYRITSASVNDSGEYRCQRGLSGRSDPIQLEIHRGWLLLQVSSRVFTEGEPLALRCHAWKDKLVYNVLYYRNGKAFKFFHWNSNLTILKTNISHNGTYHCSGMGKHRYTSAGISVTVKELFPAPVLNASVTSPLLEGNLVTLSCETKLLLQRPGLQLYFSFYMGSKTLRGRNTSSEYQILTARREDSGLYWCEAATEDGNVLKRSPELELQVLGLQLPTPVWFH
binder,measurement,setting,value
"IL6R-P587/IL6R-L (antibody, human IgG1, kappa, human IgG1) heavy: QVQLQESGPGLVKPSETLSLTCAVSGHSISHDHAWSWVRQPPGEGLEWIGFISYSGITNYNPSLQGRVTISRDNSKNTLYLQMNSLRAEDTAVYYCARSLARTTAMDYWGEGTLVTVSSASTKGPSVFPLAPSSKSTSGGTAALGCLVKDYFPEPVTVSWNSGALTSGVHTFPAVLQSSGLYSLSSVVTVPSSSLGTQTYICNVNHKPSNTKVDKKVEPKSCDKTHTCPPCPAPDLLGGDSVFLFPPKPKDTLMISRTPEVTCVVIDVAEEDGEVKFNWYVDGVEVHNAKTKPREEQYNSTYRVVSVLTVLHQDWLNGKEYKCKVSNKALPAPIEKTISKAKGQPREPQVYTLPPSRDELTKNQVSLTCLVKGFYPSDIAVEWESNGQPENNYKTTPPVLDSDGSFFLYSKLTVDKSRWQQGNVFSCSVMHEALHNHYTQKSLSLSP light: not shown",KD of G1d for FcgRIIb/KD of Each Variant for FcgRIIb,[1],256
same,KD of G1d for FcgRIIaR/KD of Each Variant for FcgRIIaR,[2],1.4
"IL6R-G1dGSS/IL6R-L (antibody, human IgG1, kappa) heavy: QVQLQESGPGLVKPSETLSLTCAVSGHSISHDHAWSWVRQPPGEGLEWIGFISYSGITNYNPSLQGRVTISRDNSKNTLYLQMNSLRAEDTAVYYCARSLARTTAMDYWGEGTLVTVSSASTKGPSVFPLAPSSKSTSGGTAALGCLVKDYFPEPVTVSWNSGALTSGVHTFPAVLQSSGLYSLSSVVTVPSSSLGTQTYICNVNHKPSNTKVDKKVEPKSCDKTHTCPPCPAPELLGGPSVFLFPPKPKDTLMISRTPEVTCVVVDVSHEDPEVKFNWYVDGVEVHNAKTKPREEQYNSTYRVVSVLTVLHQDWLNGKEYKCKVSNKGLPSSIEKTISKAKGQPREPQVYTLPPSRDELTKNQVSLTCLVKGFYPSDIAVEWESNGQPENNYKTTPPVLDSDGSFFLYSKLTVDKSRWQQGNVFSCSVMHEALHNHYTQKSLSLSP light: not shown",Relative FcgRIIb-binding Activity,[3],0.9
same,Relative FcgRIIaR-binding Activity,[4],0.79
same,Relative FcgRIIaH-binding Activity,[5],0.517
same,Relative FcgRIa-binding Activity,[6],0.97
same,Relative FcgRIIIaV-binding Activity,[7],0.231
same,Kd,[8],2400 nM
same,Kd,[9],1400 nM
same,Kd,[10],1200 nM
same,Kd,[11],0.33 nM
same,Kd,[12],1600 nM
VH3/L (WT)-mIgG1-mF44 (antibody) heavy: QVQLQESGPGLVKPSETLSLTCAVSGHSISHDHAWSWVRQPPGEGLEWIGFISYSGITNYNPSLQGRVTISRDNSKNTLYLQMNSLRAEDTAVYYCARSLARTTAMDYWGEGTLVTVSSAKTTPPSVYPLAPGSAAQTNSMVTLGCLVKGYFPEPVTVTWNSGSLSSGVHTFPAVLQSDLYTLSSSVTVPSSTWPSETVTCNVAHPASSTKVDKKIVPRDCGCKPCICTVPEVSSVFIFPPKPKDVLTITLTPKVTCVVVDISKDDPEVQFSWFVDDVEVHTAQTQPREEQFNSTFRSVSELPIMHQDWLNGKEFKCRVNSADFPAPIEKTISKTKGRPKAPQVYTIPPPKEQMAKDKVSLTCMITDFFPEDITVEWQWNGQPAENYKNTQPIMDTDGSYFVYSKLNVQKSNWEAGNTFTCSVLHEGLHNHHTEKSLSHSPGK light: not shown,binding result,[13],no binding
same,binding result,[14],no binding
"VH3/L (WT)-mIgG1 (antibody, mouse IgG1 constant region) heavy: QVQLQESGPGLVKPSETLSLTCAVSGHSISHDHAWSWVRQPPGEGLEWIGFISYSGITNYNPSLQGRVTISRDNSKNTLYLQMNSLRAEDTAVYYCARSLARTTAMDYWGEGTLVTVSSAKTTPPSVYPLAPGSAAQTNSMVTLGCLVKGYFPEPVTVTWNSGSLSSGVHTFPAVLQSDLYTLSSSVTVPSSTWPSETVTCNVAHPASSTKVDKKIVPRDCGCKPCICTVPEVSSVFIFPPKPKDVLTITLTPKVTCVVVDISKDDPEVQFSWFVDDVEVHTAQTQPREEQFNSTFRSVSELPIMHQDWLNGKEFKCRVNSAAFPAPIEKTISKTKGRPKAPQVYTIPPPKEQMAKDKVSLTCMITDFFPEDITVEWQWNGQPAENYKNTQPIMDTDGSYFVYSKLNVQKSNWEAGNTFTCSVLHEGLHNHHTEKSLSHSPGK light: not shown",binding result,[13],no binding
same,binding result,[14],no binding
VH3/L (WT)-mIgG1-mF46 (antibody) heavy: QVQLQESGPGLVKPSETLSLTCAVSGHSISHDHAWSWVRQPPGEGLEWIGFISYSGITNYNPSLQGRVTISRDNSKNTLYLQMNSLRAEDTAVYYCARSLARTTAMDYWGEGTLVTVSSAKTTPPSVYPLAPGSAAQTNSMVTLGCLVKGYFPEPVTVTWNSGSLSSGVHTFPAVLQSDLYTLSSSVTVPSSTWPSETVTCNVAHPASSTKVDKKIVPRDCGCKPCICTVPEVSDVFIFPPKPKDVLTITLTPKVTCVVVDISKDDPEVQFSWFVDDVEVHTAQTQPREEQFNSTFRSVSELPIMHQDWLNGKEFKCRVNSADFPAPIEKTISKTKGRPKAPQVYTIPPPKEQMAKDKVSLTCMITDFFPEDITVEWQWNGQPAENYKNTQPIMDTDGSYFVYSKLNVQKSNWEAGNTFTCSVLHEGLHNHHTEKSLSHSPGK light: not shown,binding result,[13],no binding
same,binding result,[14],no binding
